Data: patent US20120172293A1 (Takeda / Millennium, published 2012)

Legend:
[1] = biological target: human Y2 receptor (human) (UniProt P49146); assay: cell-based or functional assay
[2] = biological target: human Y2 receptor (human) (UniProt P49146); assay: RBA: displacement of [125I]-PYY from hY2R/CHO membranes

human Y2 receptor (human), sequence (P49146 whole entry): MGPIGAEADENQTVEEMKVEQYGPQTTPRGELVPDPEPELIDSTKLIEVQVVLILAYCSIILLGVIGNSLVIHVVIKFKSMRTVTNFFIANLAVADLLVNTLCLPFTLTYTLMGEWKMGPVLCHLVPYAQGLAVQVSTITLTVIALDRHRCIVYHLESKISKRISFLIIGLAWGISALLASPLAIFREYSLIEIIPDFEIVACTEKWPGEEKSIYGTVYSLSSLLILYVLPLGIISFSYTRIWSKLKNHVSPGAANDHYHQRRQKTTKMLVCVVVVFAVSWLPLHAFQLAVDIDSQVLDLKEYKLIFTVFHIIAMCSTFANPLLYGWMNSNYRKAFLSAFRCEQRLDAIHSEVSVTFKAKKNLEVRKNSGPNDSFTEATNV

GBA EC50 Ratio ([35S]GTPγS binding) (EC50 compound/EC50 PYY(3-36)) [1] | IC50 Ratio (IC50 compound/IC50 PYY(3-36)) [2] | Substance
0.65 | 0.91 | (cis-2,6-Dimethylmorpholin-4-yl)carbonyl-[D-Pro24, Pya(4)26, Cha27,36, Aib28,31, Lys30]-PYY(23-36) (peptide)
0.92 | 1.3 | 4-Imidazolecarbonyl-[D-Hyp24, Iva25, Pya(4)26, Cha27,36, Aib28,31, Lys30]-PYY(23-36) (peptide)
0.94 | 0.78 | [(1S)-1-Carboxyethyl]carbamoyl-[D-Pro24, Pya(4)26, Cha27,36, Aib28,31, Lys30]-PYY(23-36) (peptide)
2.6 | 1.7 | Ac-[D-Pro24, Pya(4)26, Cha27,36, D-Iva28, Lys30, Aib31]-PYY(23-36) (peptide)
1.4 | 0.82 | Ac-[D-Pro24, Har25, Pya(4)26, Cha27,36, Aib28,31, Lys30]-PYY(23-36) (peptide)
0.94 | 1.3 | (2-Carboxyethyl)carbamoyl-[D-Pro24, Pya(4)26, Cha27,36, Aib28,31, Lys30]-PYY(23-36) (peptide)
1.9 | 0.92 | 3-Carboxypropionyl-[D-Hyp24, Iva25, Pya(4)26, Cha27,36, Leu(Me)28, Lys30, Aib31]-PYY(23-36) (peptide)
1 | 0.86 | Ac-[D-Hyp24, Iva25,28, Pya(4)26, Cha27,36, Lys30, Aib31]-PYY(23-36) (peptide)
11 | 17 | Ac-[D-Pro24, Pya(4)26, Ala(4Pip)27, Aib28,31, Lys30, Cha36]-PYY(23-36) former peak (peptide)
0.89 | 0.79 | Isobutanoyl-[D-Pro24, Pya(4)26, Cha27,36, Aib28,31, Lys30]-PYY(23-36) (peptide)
1.5 | 0.97 | Ac-[D-Hyp24, Iva25, Pya(4)26, Cha27,36, Leu(Me)28, Lys30, Aib31]-PYY(23-36) (peptide)
1.2 | 0.33 | Ac-[D-Pro24, Pya(4)26, Cha27,36, Iva28, Lys30, Aib31]-PYY(23-36) (peptide)
3.9 | 3.8 | Ac-[D-Pro24, Pya(4)26, Ala(4Pip)27, Aib28,31, Lys30, Cha36]-PYY(23-36) later peak (peptide)
1.4 | 0.96 | Ac-[D-Pro24, Pya(4)26, Cha27,36, Aib28,31, Nle30]-PYY(23-36) (peptide)
0.98 | 2.3 | Ac-[D-Pro24, Abu26, Cha27,36, Aib28,31, Lys30]-PYY(23-36) (peptide)
1.4 | 0.75 | 4-Imidazolecarbonyl-[D-Hyp24, Iva25, Pya(4)26, Cha27,36, Leu(Me)28, Lys30, Aib31]-PYY(23-36) (peptide)
0.86 | 1.1 | Ac-[D-Hyp24, Pya(4)26, Cha27,36, Aib28,31, Lys30]-PYY(23-36) (peptide)
1.7 | 0.57 | (3-Carboxypropyl)carbamoyl-[D-Hyp24, Iva25, Pya(4)26, Cha27,36, Leu(Me)28, Lys30, Aib31]-PYY(23-36) (peptide)
0.59 | 0.52 | Ac-[D-Pro24, Pya(4)26, Cha27, Aib28,31, Lys30, Phe(2,6-Me2)36]-PYY(23-36) (peptide)
1.3 | 0.52 | [(1S)-1-carboxy-2-hydroxyethyl]carbamoyl-[D-Pro24, Pya(4)26, Cha27,36, Aib28,31, Lys30]-PYY(23-36) (peptide)
1.1 | 3.4 | Ac-[D-Pro24, Pya(4)26, Cha27,36, D-Iva28, Lys30, Iva31]-PYY(23-36) (peptide)
5.7 | 5.8 | Ac-[D-Pro24, Pya(4)26, Cha27,36, Aib28,31, Hse30]-PYY(23-36) (peptide)
1.3 | 1.1 | Ac-[D-Pro24, Arg(Me)25, Pya(4)26, Cha27,36, Aib28,31, Lys30]-PYY(23-36) (peptide)
1.5 | 1.2 | Ac-[D-Pro24, Ala(4Pip)26, Cha27,36, Aib28,31, Lys30]-PYY(23-36) (peptide)

GBA EC50 Ratio ([35S]GTPγS binding) (EC50 compound/EC50 PYY(3-36)) [1] | IC50 Ratio (IC50 compound/IC50 PYY(3-36)) [2] | Substance
0.8 | 0.72 | Ac-[D-Pro24, Pya(4)26, Cha27,36, Aib28,31, Ala(4-pip)30]-PYY(23-36) (peptide)
0.97 | 1.2 | (3-carboxypropyl)carbamoyl-[D-Pro24, Pya(4)26, Cha27,36, Aib28,31, Lys30]-PYY(23-36) (peptide)
1.6 | 0.55 | Ac-[D-Pro24, Pya(4)26, Cha27,36, Aib28, Lys30, D-Iva31]-PYY(23-36) (peptide)
0.83 | 1.5 | Ac-[D-Pro24, Pya(4)26, Cha27,36, Aib28,31, Orn30]-PYY(23-36) (peptide)
1.4 | 0.88 | Ac-[D-Pro24, Tyr(Me)26, Cha27,36, Aib28,31, Lys30]-PYY(23-36) (peptide)
4 | 7.2 | Ac-[D-Pro24, Pya(4)26, Nal(2)27, Aib28,31, Lys30, Cha36]-PYY(23-36) (peptide)
1.7 | 2.9 | Ac-[D-Pro24, Pya(4)26, Nal(1)27, Aib28,31, Lys30, Cha36]-PYY(23-36) (peptide)
1.5 | 1.2 | (5-carboxypentyl)carbamoyl-[D-Pro24, Pya(4)26, Cha27,36, Aib28,31, Lys30]-PYY(23-36) (peptide)
2.2 | 2.8 | Ac-[D-Pro24, Cit25, Pya(4)26, Cha27,36, Aib28,31, Lys30]-PYY(23-36) (peptide)
3.9 | 10 | Ac-[D-Pro24, Pya(4)26, Phe(4F)27, Aib28,31, Lys30, Cha36]-PYY(23-36) (peptide)
1.7 | 1.9 | 4-Imidazolecarbonyl-[Aib24,28,31, Iva25, Pya(4)26, Cha27,36, Lys30]-PYY(23-36) (peptide)
1.8 | 1.1 | Ac-[D-Pro24, Nar25, Pya(4)26, Cha27,36, Aib28,31, Lys30]-PYY(23-36) (peptide)
1.4 | 1.5 | Ac-[D-Hyp24, Iva25, Pya(4)26, Cha27,36, Aib28,31, Lys30]-PYY(23-36) (peptide)
0.74 | 1.2 | (2-amino-2-oxoethyl)carbamoyl-[D-Pro24, Pya(4)26, Cha27,36, Aib28,31, Lys30]-PYY(23-36) (peptide)
0.98 | 1 | Ac-[D-Pro24, Pya(4)26, Cha27, Aib28,31, Lys30, Phe(2Me)36]-PYY(23-36) (peptide)
1.6 | 0.93 | 4-Pyridinecarbonyl-[D-Hyp24, Iva25, Pya(4)26, Cha27,36, Leu(Me)28, Lys30, Aib31]-PYY(23-36) (peptide)
0.57 | 0.89 | Morpholinocarbonyl-[D-Pro24, Pya(4)26, Cha27,36, Aib28,31, Lys30]-PYY(23-36) (peptide)
1.2 | 1.2 | (Carboxymethyl)carbamoyl-[D-Pro24, Pya(4)26, Cha27,36, Aib28,31, Lys30]-PYY(23-36) (peptide)
1.6 | 1.2 | Ac-[Dap22, D-Pro24, Pya(4)26, Cha27,36, Aib28,31, Lys30]-PYY(22-36) (peptide)
1.2 | 1.1 | Ac-[D-Pro24, Pya(4)26, Cha27,36, Aib28,31, Arg(Me)30]-PYY(23-36) (peptide)
0.67 | 0.36 | Ac-[D-Pro24, Pya(4)26, Cha27,36, Iva28, Lys30, D-Iva31]-PYY(23-36) (peptide)
1.7 | 1.1 | Ac-[D-Pro24, Pya(4)26, Cha27,36, Aib28,31, Lys(Me2)30]-PYY(23-36) (peptide)
0.7 | 0.82 | (Tetrahydro-2H-pyran-4-ylmethyl)carbamoyl-[D-Pro24, Pya(4)26, Cha27,36, Aib28,31, Lys30]-PYY(23-36) (peptide)
